In US20230038638A1, “COMPLEMENT FACTOR I-RELATED COMPOSITIONS AND METHODS” (published 2023) one finds iC3b Screen Ref Fold (fold vs CFI-HSA wild type), C4b Screen Ref Fold (fold vs CFI-HSA wild type) and iC3b Screen Ref Fold (fold of reference) data, which are given here for 29 substances.

In assay [1] the target is soluble human C3b (human) (UniProt P01024).
For the next assay, the target named is T1, human C4b (human) (UniProt P0C0L5).
T1 sequence: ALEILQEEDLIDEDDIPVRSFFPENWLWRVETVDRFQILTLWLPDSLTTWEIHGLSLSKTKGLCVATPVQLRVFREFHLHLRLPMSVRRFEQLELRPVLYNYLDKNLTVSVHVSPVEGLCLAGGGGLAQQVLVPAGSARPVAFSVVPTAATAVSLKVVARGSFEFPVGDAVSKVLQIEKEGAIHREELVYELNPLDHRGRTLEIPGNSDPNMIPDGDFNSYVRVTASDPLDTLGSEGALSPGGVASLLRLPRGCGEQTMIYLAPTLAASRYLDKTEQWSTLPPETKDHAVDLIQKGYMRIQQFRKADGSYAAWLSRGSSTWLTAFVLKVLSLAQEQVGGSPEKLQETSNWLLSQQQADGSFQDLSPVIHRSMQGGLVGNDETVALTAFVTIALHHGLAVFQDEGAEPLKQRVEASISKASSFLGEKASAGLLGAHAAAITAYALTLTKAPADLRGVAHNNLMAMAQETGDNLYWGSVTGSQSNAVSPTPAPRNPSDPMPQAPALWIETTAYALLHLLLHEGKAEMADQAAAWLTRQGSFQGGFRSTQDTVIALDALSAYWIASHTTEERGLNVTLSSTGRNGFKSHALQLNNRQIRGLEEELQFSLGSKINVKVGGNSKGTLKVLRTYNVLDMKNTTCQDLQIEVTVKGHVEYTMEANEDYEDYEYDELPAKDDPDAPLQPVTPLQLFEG

With “(HSA-GS)-V311-V565 - G(10) - K1-G310; C309S; C435S (enzyme)”, the iC3b Screen Ref Fold (fold vs CFI-HSA wild type) in assay [1] was determined as 0.03. Moreover, the C4b Screen Ref Fold (fold vs CFI-HSA wild type) with human C4b (human) was 0.21. On to “(HSA-GS)-V311-V565 - G(13) - K1-G310 (enzyme)”, for which, in assay [1], the iC3b Screen Ref Fold (fold vs CFI-HSA wild type) stood at 0.03. The C4b Screen Ref Fold (fold vs CFI-HSA wild type) in the assay with human C4b (human) worked out at 0.34. “(HSA-GS)-V311-V565 - G(13) - K1-G310; C309S; C435S (enzyme)”: in assay [1], the iC3b Screen Ref Fold (fold vs CFI-HSA wild type) came to 0.03. Also, the C4b Screen Ref Fold (fold vs CFI-HSA wild type) with human C4b (human) is 0.06. In the same order, the values of CFI-HSA A342G (enzyme) are 1.23 and 0.91.

In the case of CFI-HSA A366G (enzyme), the iC3b Screen Ref Fold (fold vs CFI-HSA wild type) in assay [1] was found to be 1.46. Also, the C4b Screen Ref Fold (fold vs CFI-HSA wild type) with human C4b (human) was 0.74. Turning to CFI-HSA A405G (enzyme), in assay [1], the iC3b Screen Ref Fold (fold vs CFI-HSA wild type) worked out at 1.74. Further, in the assay with human C4b (human), the C4b Screen Ref Fold (fold vs CFI-HSA wild type) was 1.06. In the same order, the values of CFI-HSA A502G (enzyme) are 0.09 and 0.06. In the same order, the values of “CFI-HSA D425R; Y408L; N531G; E457G; E461Q; R462K; F464Y; E530Y (enzyme)” are 1.57 and 4.98. In the same order, the values of CFI-HSA D459G (enzyme) are 1.93 and 1.07. Consider CFI-HSA D501G (enzyme), for which the iC3b Screen Ref Fold (fold vs CFI-HSA wild type) in assay [1] was -0.04. Further, the C4b Screen Ref Fold (fold vs CFI-HSA wild type) with human C4b (human) was -0.01. CFI-HSA D549A (enzyme): the iC3b Screen Ref Fold (fold vs CFI-HSA wild type) in assay [1] came out at 0.66. For the same substance, the C4b Screen Ref Fold (fold vs CFI-HSA wild type) with human C4b (human) was found to be 1.04.

Regarding CFI-HSA D549F (enzyme), the iC3b Screen Ref Fold (fold vs CFI-HSA wild type) in assay [1] amounted to 0.22. In addition, the C4b Screen Ref Fold (fold vs CFI-HSA wild type) in the assay with human C4b (human) was found to be 0.05.

Take CFI-HSA D549G (enzyme): the iC3b Screen Ref Fold (fold vs CFI-HSA wild type) in assay [1] stood at 0.86. For the same substance, the C4b Screen Ref Fold (fold vs CFI-HSA wild type) with human C4b (human) was found to be 0.75.

For CFI-HSA D549H (enzyme), in assay [1], the iC3b Screen Ref Fold (fold vs CFI-HSA wild type) is 0.73. The C4b Screen Ref Fold (fold vs CFI-HSA wild type) with human C4b (human) came out at 0.92. Turning to CFI-HSA D549K (enzyme), in assay [1], the iC3b Screen Ref Fold (fold vs CFI-HSA wild type) stood at 0.18. The C4b Screen Ref Fold (fold vs CFI-HSA wild type) with human C4b (human) worked out at 1. In the same order, the values of CFI-HSA D549L (enzyme) are 0.2 and 0.1.

In the case of CFI-HSA D549M (enzyme), the iC3b Screen Ref Fold (fold vs CFI-HSA wild type) in assay [1] turned out to be 0.45. The C4b Screen Ref Fold (fold vs CFI-HSA wild type) with human C4b (human) turned out to be 0.23. In the same order, the values of CFI-HSA D549N (enzyme) are 1.48 and 1.08. For the substance “CFI-HSA variant I317D-R318D-R319D-K320D-R321K (enzyme)”, the iC3b Screen Ref Fold (fold vs CFI-HSA wild type) in assay [1] was found to be 0.03. Still for that read-out and setting: with CFI-HSA variant K504Q (enzyme) the figure was 0.64; with “CFI-HSA variant N446Q; N476Q; N518Q (enzyme)”, 0.06. As for “CFI-HSA variant T346R; K504E; E530R (enzyme)”, the iC3b Screen Ref Fold (fold of reference) in assay [1] is 0.51. Take CFI-HSA variant Y408D (enzyme): the iC3b Screen Ref Fold (fold vs CFI-HSA wild type) in assay [1] turned out to be 0.02. For the substance CFI-HSA variant Y408E (enzyme), in assay [1], the iC3b Screen Ref Fold (fold of reference) stood at 0.23.

For CFI-HSA variant Y408K (enzyme), the iC3b Screen Ref Fold (fold vs CFI-HSA wild type) in assay [1] was 0.65. Still for that read-out and setting: with CFI-HSA variant Y408T (enzyme) the figure was 0.04.

For the substance CFI-HSA variant Y408V (enzyme), in assay [1], the iC3b Screen Ref Fold (fold of reference) worked out at 0. With CFI-HSA variant Y408W (enzyme), in assay [1], the iC3b Screen Ref Fold (fold of reference) was determined as 0.82.

CFI-HSA variant Y4081 (enzyme): in assay [1], the iC3b Screen Ref Fold (fold vs CFI-HSA wild type) was 0.03.
